Assay results: IntAct's records for PubMed 19556969

B1: Regulator of nonsense transcripts 2 (Homo sapiens), Q9HAU5 (parent)
chain: MPAERKKPASMEEKDSLPNNKEKDCSERRTVSSKERPKDDIKLTAKKEVSKAPEDKKKRLEDDKRKKEDKERKKKDEEKVKAEEESKKKEEEEKKKHQEEERKKQEEQAKRQQEEEAAAQMKEKEESIQLHQEAWERHHLRKELRSKNQNAPDSRPEENFFSRLDSSLKKNTAFVKKLKTITEQQRDSLSHDFNGLNLSKYIAEAVASIVEAKLKISDVNCAVHLCSLFHQRYADFAPSLLQVWKKHFEARKEEKTPNITKLRTDLRFIAELTIVGIFTDKEGLSLIYEQLKNIINADRESHTHVSVVISFCRHCGDDIAGLVPRKVKSAAEKFNLSFPPSEIISPEKQQPFQNLLKEYFTSLTKHLKRDHRELQNTERQNRRILHSKGELSEDRHKQYEEFAMSYQKLLANSQSLADLLDENMPDLPQDKPTPEEHGPGIDIFTPGKPGEYDLEGGIWEDEDARNFYENLIDLKAFVPAILFKDNEKSCQNKESNKDDTKEAKESKENKEVSSPDDLELELENLEINDDTLELEGGDEAEDLTKKLLDEQEQEDEEASTGSHLKLIVDAFLQQLPNCVNRDLIDKAAMDFCMNMNTKANRKKLVRALFIVPRQRLDLLPFYARLVATLHPCMSDVAEDLCSMLRGDFRFHVRKKDQINIETKNKTVRFIGELTKFKMFTKNDTLHCLKMLLSDFSHHHIEMACTLLETCGRFLFRSPESHLRTSVLLEQMMRKKQAMHLDARYVTMVENAYYYCNPPPAEKTVKKKRPPLQEYVRKLLYKDLSKVTTEKVLRQMRKLPWQDQEVKDYVICCMINIWNVKYNSIHCVANLLAGLVLYQEDVGIHVVDGVLEDIRLGMEVNQPKFNQRRISSAKFLGELYNYRMVESAVIFRTLYSFTSFGVNPDGSPSSLDPPEHLFRIRLVCTILDTCGQYFDRGSSKRKLDCFLVYFQRYVWWKKSLEVWTKDHPFPIDIDYMISDTLELLRPKIKLCNSLEESIRQVQDLEREFLIKLGLVNDKDSKDSMTEGENLEEDEEEEEGGAETEEQSGNESEVNEPEEEEGSDNDDDEGEEEEEENTDYLTDSNKENETDEENTEVMIKGGGLKHVPCVEDEDFIQALDKMMLENLQQRSGESVKVHQLDVAIPLHLKSQLRKGPPLGGGEGEAESADTMPFVMLTRKGNKQQFKILNVPMSSQLAANHWNQQQAEQEERMRMKKLTLDINERQEQEDYQEMLQSLAQRPAPANTNRERRPRYQHPKGAPNADLIFKTGGRRR
partner: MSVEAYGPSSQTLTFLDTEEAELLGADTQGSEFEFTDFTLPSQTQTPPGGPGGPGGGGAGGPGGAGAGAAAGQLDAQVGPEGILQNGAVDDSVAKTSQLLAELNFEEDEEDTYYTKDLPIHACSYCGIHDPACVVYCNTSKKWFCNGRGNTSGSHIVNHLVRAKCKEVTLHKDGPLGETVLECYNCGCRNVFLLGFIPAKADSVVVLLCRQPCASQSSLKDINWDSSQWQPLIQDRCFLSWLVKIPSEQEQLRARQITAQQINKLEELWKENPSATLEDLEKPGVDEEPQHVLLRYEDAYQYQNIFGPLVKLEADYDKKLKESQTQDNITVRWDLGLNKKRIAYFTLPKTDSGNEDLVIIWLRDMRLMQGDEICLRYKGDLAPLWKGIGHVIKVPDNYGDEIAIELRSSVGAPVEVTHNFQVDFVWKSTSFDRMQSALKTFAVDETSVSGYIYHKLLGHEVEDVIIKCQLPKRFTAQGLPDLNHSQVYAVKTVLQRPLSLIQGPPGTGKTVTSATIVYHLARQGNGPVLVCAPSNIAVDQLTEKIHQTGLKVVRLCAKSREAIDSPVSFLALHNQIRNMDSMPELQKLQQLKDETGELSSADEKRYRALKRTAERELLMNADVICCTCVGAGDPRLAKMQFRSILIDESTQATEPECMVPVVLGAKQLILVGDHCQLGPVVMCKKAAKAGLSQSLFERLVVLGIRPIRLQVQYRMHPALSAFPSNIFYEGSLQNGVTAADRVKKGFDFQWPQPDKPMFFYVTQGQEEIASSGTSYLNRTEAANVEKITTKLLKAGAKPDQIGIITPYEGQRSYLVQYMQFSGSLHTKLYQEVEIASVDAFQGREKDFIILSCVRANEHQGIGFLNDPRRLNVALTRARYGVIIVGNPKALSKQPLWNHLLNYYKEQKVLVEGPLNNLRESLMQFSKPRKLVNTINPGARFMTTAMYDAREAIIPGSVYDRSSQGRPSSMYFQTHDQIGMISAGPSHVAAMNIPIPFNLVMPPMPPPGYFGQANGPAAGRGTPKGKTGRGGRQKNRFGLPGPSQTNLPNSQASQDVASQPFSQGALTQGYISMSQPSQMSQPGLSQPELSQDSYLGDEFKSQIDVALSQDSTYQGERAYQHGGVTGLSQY

Variants of: B1
Conditions: with rent1_human UPF1, Q92900

effect of a mutation on the interaction | Variant
decreasing interaction | E1123R

Variants of: B1
Conditions: with rent1_human UPF1, Q92900
Remark: another data set of the same source

effect of a mutation on the interaction | Variant
decreasing interaction | R1176E

Variants of: B1
Conditions: with rent1_human UPF1, Q92900
Remark: another data set of the same source

effect of a mutation on the interaction | Variant
decreasing interaction | M1169E

Variants of: B1
Conditions: with rent1_human UPF1, Q92900
Remark: another data set of the same source

effect of a mutation on the interaction | Variant
disrupting interaction | M1173E

Variants of: B1
Conditions: with rent1_human UPF1, Q92900
Remark: another data set of the same source

effect of a mutation on the interaction | Variant
decreasing interaction | M1120E

Variants of: B1
Conditions: with rent1_human UPF1, Q92900
Remark: another data set of the same source

effect of a mutation on the interaction | Variant
decreasing interaction | M1121E

Variants of: B1
Conditions: with rent1_human UPF1, Q92900
Remark: another data set of the same source

effect of a mutation on the interaction | Variant
disrupting interaction | F1171E

Variants of: B1
Conditions: with rent1_human UPF1, Q92900
Remark: another data set of the same source

effect of a mutation on the interaction | Variant
disrupting interaction | F1113E

Variants of: B1
Conditions: with rent1_human UPF1, Q92900
Remark: another data set of the same source

effect of a mutation on the interaction | Variant
disrupting interaction | L1174E
